Experimental data published in a protein production outcome set (Wang et al. 2014).

Test: label from the status in PepcDB records

Row | Sequence | protein production
1 | MNNISSNIKKVLFIFLVIFFVTISYITYFELIVSPKIVNNTDNKRLWAKRNEVLRGTIYDRNKKALTKSERVNTLTQKREYTGGAMFSHVLGYVNPQYGLTGLEAKYDQYLMGADDQPINQYLMELIKNKGKVSPEDKRGEDVVTTLDYNIQQQAYNLLGDNKGSVVVLNPKTGEILAMVSKPSYDPNDDALKASWAALNSNPDRPLLNRAVSGLYPPGSTFKTVTAISALENISGIQNETFNDPGQLVFNSTESLRDFGGESFGDIGFKHAYVVSSNVVFGKIGLQLGNNNLRQTAESFYFNKNIPCDGIVIDKSKFPTLKSYEKGNMAQSAIGQASVLATPIQMALVASTVANDGVMMKPHVVNEILSPNGDKIKSIEPESIGNIVSKENAATMKDFMRNVVEDGTGVNAAVEGIQVAGKTGTADHKVNGKDATPHSWFIGFAPYDNPQVAIAVIVEDGGQGGKAAAGIASKVIQTALQK | failed
2 | MNNKQLDFTEGSITKKMVVFSWPIFLSNLLQTSYQITDSLWVGNLLGASALGALSISATVVFMVLSFIIGLNGATLTVLSQRQGAKDEAGLKASLNAFVFVLGLLAILLGLIGYFSASSILQLLGTPEEILPLAESYLKINFIGILFLFGYNFIGTVLRAMGDSRSPVRFIFIAVILNIILDPLMIAGFNLGIDGAAYATIVSQGTAFIYGLIYSVRKAGVPFQIPYVPEKRYFFVLFKLGLPAGLSMITISAGVTAILSVVTSFGEEAVAGFGAAQRLDSLIMLPALTLGSAVNTIAGQNIGANKWERVRATAKQGVMLIIAVTLIIGLITFIGAQFFIRLFVRDEATVAFGAMYIQTIAFFYPFLGINFVLNGIVRASGAMFPVLLLNIISFWILRYPLTYWMSDLFGERGIALGMGFAFVVSSLIATGYYFLGNWRKVGEELAQKTGHSKV | failed
3 | MNNLFAAPTPEEHAALLQEIGPLPLSGQAWPDWVRILAWIVLAVIGVQIVTTAIGLPPGQVNPVLAGTIILCFLGLALVSWHMQISVTRIDESGLRQTWITRREVAWQDIQFAKFVPLLFSKRLVVFTRHGRPIVFQGGTRDLQVAFAKISLLYRRKR | failed
4 | MNNPDLPYRQALECLSQKQYNFTEVRRLLTEAFSAGHPAAAFELAKHLMDADSPYQDREQGMEMLRIAAEQGHPYARYNLAYIQELEGAPPETLIPLYRPLAEEGLPEAQVRLMYLLYASRHFEEALEWAKTSAKNNNPHGQYLLAQYCRYGTPPDFETAHLLYRKSAAQGLPEAHWQLGLQYRFGQGTKVDTAQAVNHLRAAAQQGYIPAYTPLAELILPTAPDEAVHWFQQAAQENDPDAHAALADIYLQGKHLERNHKLALHHAEAAAAERHPEGLRILGDICRYGLGIAPDTEKARHYYRQAAEAGSLSAYQKLISDSALNHPDQYGGIKDSAIRRQRAERLYQKAQALHYGLQCAPEYAAALKLYTEAAELGHSKAQTNLGSMYYFGQGMTADYNEARKWFEKAAAKKDSMAFYNLACIHYSGHGVEPDKEKACRYLQEAINNGYGQKSVLQELLQQWQNAV | failed
5 | MNNQYKLIEEFNNAEFDKSLKWFSPPKDWEVNSNKSKLIVKPDKETDFWQKTHYEFQVDNGHFLYYELNGDFRLITKVKSKPANRYDQAGLMVRFSKDTWLKTSVEYIPDDNSKLGVVVTKNGYSDWSSQEFFGDLNSLYYRITRRGNNYYVDYSLDGDLWKQIRMVYLFEEKDCMKVGIYACSPQGDGYEAEFEFIKIENIDDNTKVY | failed
6 | MNNRDLLLGIFVMIIWGLNFSVIKLGVSEIDPLLLTALRFSFAVIPAVFFVKRPQVKWRYLMGYGLVFAIGVWGMGSWSIQAGLSAGMASVLLQMNVVISLLVGYFVLKETVAPIKVVGSVVAILGLALSVSVTDGSVTTLGLVFILIAALSWSITSILVKKAGTKEIFAFSIWGMLFAPLPLFALAFLRGGPEQLQTLNSLANGSVIFSVLFQAYPVTLFGYWVWNRLLVKYPLSTVAPLTFLVPIFGLLGSAIFYQEQIGLVKALACLLIIVGLIIGLIKTEKLKAYLHQPKSAKQVV | failed
7 | MNNRELYGNIRDVYHLLQKNLDKAIEQYDISYVQFGVIQVLAKSGKVSMSKLIENMGCVPSNMTTMIQRMKRDGYVMTEKNPNDQRETLVYLTKKGEETKKQVDVQYSDFLKENCGCFTKEEEGILEDLLLKWKKHLN | not failed
8 | MNNSFRNKIHEQSKENLSDDRHKKSDRTLIVFNRKTPLYFYFFEQVRYITGSIYILIETPSSRNLPIYSNICIPISSHPNTNYRPKKRKKNPPTVYLTTIILIMGLLSLEDTIKEKLKDRKNAHFMLVDGMSKLLTEKVKNCQSLDFQVSGVKWRLVIRLSRGRKDHLSFVLEITDEKCTGSTWDVKFNFKIGIVPQTGPDYCFVLVGHQNEKKRSQGLANFISHTDLKERFLVNDKAGFYAEISDVQPNFPVTRIPRTMGTAERFKLIEFSPKNSRFTWKITQFSSFDGEEHSSYEFTVGPRRWKLVMYPKGNGDGKGNSLSLYLFASDYVTNGPKGGTLAIYKLRVLDQLNRNHCETECRYWFPYNPVNQMDSLWGRPKFLPLEELHKSSRGFLVNDQIYIGVEISIVSTTEYL | failed
9 | MNNTLLYVITVLIWGSTWIAINYQLGEVAAEVSIVYRFGLAALCMFAYCRFKKLPLKFSAKQHLQLSAFGLTLFGFNYYLLYNAQAHINSALTSIAFSTLMMINILNARVWFKTRISSRVYYGGALGLMGIVTLFWPQISNVHFGDSTLLGLGLCLIGVVFASTGNMISIKNQHDNMPVLPATAWGMMYGSLFMFVVALVQGQTFNFSYTFEYISSLLYLSIFGSVIAFGCYLTLLARIGAHKASYATIMFPAVAVVISSFFEGFIWDSYTFIGLSLMLAGNLVVLAKPGMLKRFNSTSLKQVSCSDAK | failed
10 | MNPGKGPVLRFRVQLLVVGFALALGAAHQAQAAPGRALYKLPDLRVGLGDDNQGDTIPGPTRPNGSIHPSPDTLKASNAGYNPAEPISGFAQLHSQGSGGVTTYGTFLLSPQVGEPVFDEAAHLSPKADETLAADAYSVRLTRYDTKVEITSAHYAAIYRLTYPTTDQAQVVLDVTRKVGGLVASEQADVQLFPEQGRIVGHVKAKGYWNPALIDIWFVAEFDQNPTAWGVFDKAERRDGALSGRTGSDERLGAWLTFKTTPTKPLLVKIAVSFVSAEMAKALLDREIPDWDFERVRRDTQAAWNDRLGQVRVEGMTESQQRRFYSALYHASTHPRDRSLDQPAARLGRPNWDEHYTLWDTYRTLFPLISVLRPSLYTANVNSLIHTFDKFGAADTAIIGGQNYHVGQGGDEVDNVLGEALLRGAEGVNWRDAWRVARFNAFERRRPRYLESGYFAVGDRSPEPNNQRAKSGSSTLGFALNDFYAAQVAAKAGQTDEAKILTERSANWRKIWNPDATSDGFSGFLMPRYADGKFQDIDPKLGWDGKVHNNVGYYEGTAWIYSYGVLHDLPGLVEAMGGRVRFNERLNHALDAGLIDITNEPSFATPWLFHAIGRADLSSRWAGEVVKHFTADAYPGDEDAGAMSSNFVFNSLGLFPKLGSDLYYLHGPRHGRTVIQLENGKTLEILAAKAGASRPYIASASFNGKPLAGPYVSQAQLLGGGVLSLSMSDQPGQWIYEGAVLTVRADQPSLVDGKTSTGWRAASGQSVTFSLKAPACIAAYSVSVGPDQADPSHWTLQAYDGRAWVSVDQQSNVVFDHRHATRTFPLAPGRYARLRWVLDGGSEASVSEVELIAGASCAAPTSGAPLL | failed
11 | MNPIVKAPTLNDLPAPPPGKTGWPWTEQNEALPEKMPDGSDWPKISIVTPSYNYGQFIEETIRSVLLQGYPNLEYIVVDGGSTDNTVTIIRKYEKYLKYWASEPDHGQTDAINKGYRYCSGDVFAWLNADDLYYDQSTLLKVINFYQKGYDLIVGECLNINADGTHFNQAITSTEKSDPTYFKKYLRYWSSGFLPQPAIFVKKEMADQCFPLSIELYYAMDFQFFLRVLNQEPKSVWIQEKLTRLRWHEDSKTMGTISRIDFHAIVPEPEVHKVALAEAENLPTWLEKIFFRIQAFDYLSLQPYINSLDNFHWLQITKTIVKRPTLAVWPLFWKIFFRSLLGEQIYKLLKRTIRTNLEHHHHHH | not failed
12 | MNPLVIKLGGVLLDSEEALERLFTALVTYREKHERPLVIMHGGGCLVDELMKRLALPVVKKNGLRVTPADQIDIITGALAGTANKTLLAWAVKHQINAVGLCLADGNTVTVTLLDAELGHVGKAQPGSAALVQTLLAAGYMPIISSIGITVEGQLMNVNADQAATALAATLGADLILLSDVSGILDGKGQRIAEMTAQKAEQLIAQGIITDGMVVKVNAALDAARSLGRPVDIASWRHSEQLPALFNGVPIGTRISV | not failed
13 | MNPTTLADVDTVIINANILTLDRDCPHAQAIAFAAGRILALGTTQELSPLAGRAATVVDARGSTLLPGFIDSHSHLMFGGVVAQALDLTEAACLSDLLDMVRSRAQSTPEGEWIRGYGVAAGRLKEKRYPTRQELDQVSGGRPVWLAEDSFHASLVNSKAFRMLEIPLSTPGVELAADGSPTGAFLNDAANVPARQRVFGFISDDEARQMLQHVTQLGATRGVTTVHAFEGSRMSADRDIELLMRFRHELPIHVVPYYETFDVERAMQLGVSGVGGCGRNCLDGMPNIQTAAMVDPYCCSEERGSLFQESIKLHNFVIAAFERGMQVGMHAMGDAAIEQLLATYERAIEETGRTDLRPRIEHFHVPSRDHVRRAADLGVGLAVQPIFTHLWGGRDGIFFERLGERRYKRIDTYREILDSGAIASCGADLPVHPADPLRWIQLLVDNQIDRDQSVSMTEAIRMCTYNGAWLGFQESETGTLAVSKAADAVMLGRDPHQCMPHEIAAIPILKTLGGKLVFESSRPLEHHHHHH | failed
14 | MNQDLSQTFLAITRNSTDLEWLQGALAPLGQVVGADGSLDELLALVDVTFANLVFVGLDREHVVAQAALIEGALEAKPMLAIVALGDGMDNQLVLNAMRAGARDFVAYGSRSSEVAGLVRRLSKRLPAVTPNTQLGGLTVLYGAQGDGDGALLASHLALVVQKSGQQTLLLDLGLPRGDSLALLGLESSFHFGDALRHLRRLDATLIDSAFTSAEAGLRILAYASHDAPLEHTSAAELYMLLSALRQHFQHIVVNLVGQPDSEALRTFVSHCDKLLWCTDQNVLDCRRNLAVLNHWREKGMKLEHARLLVDRYLRTVAPDSETLGKTFGLEVIAVLAYSPEVRLNAKNQGVTLFELAPREALTQSLRTLGERLAKRSQGLPKPKAGWLNRIMGGRLEHHHHHH | failed
15 | MNQEIAYLHPVKTARALVLVYLCFSVPIVAMGLFVAFIRYGDLPGITVFTALILNALIGFGLLWLGCKAYNWVAARFGGIEVHVRELTPEDRQ | failed
16 | MNQFGPSALINLSNFSSIKPEPASTPPQGSMANSTAVVKIPGTPGAGGRLSPENNQVLTKKKLQDLVREVDPNEQLDEDVEEMLLQIADDFIESVVTAACQLARHRKSSTLEVKDVQLHLERQWNMWIPGFGSEEIRPYKKACTTEAHKQRMALIRKTTKK | failed
17 | MNQHSFSLDDYYKSLINLDGMNDYYRYFIGLNGIIFPLLLIMSYPSVINLATKASFLIMLVGACCVLIDNWNRKSIAYRLYVELYENEYLANSDYKAGKVFVNLIFYVVSIYLISGVFGVL | failed
18 | MNQKDVKLTVFSSDEKSFMVTATLVEKAGHAFLINSKFTQSDSKEIVEYLKKNNLSLDKIFIIHGDPDYYFGLESIKAVYPEAIAYATESTVEHIVHSVLGKLKVWKDALGENAPSNVVLPQVFKEKAIDFQGLTFELVGLEHYRTSLFNKELKVLIGGIDVFNEIHVFLADTSSKAAMEAWIENLKVLQALHADIIVPSHGSIEKSLNNQALTATMDYLRTAVQASEESGTSKDFVAKLEAAYPDYANKGVLELSAKVVTKELEHHHHHH | failed
19 | MNQQPIKIAVFGLGGVGGYYGAMLALRAAATDGLLEVSWIARGAHLEAIRAAGGLRVVTPSRDFLARPTCVTDNPAEVGTVDYILFCTKDYDMERGVAEIRPMIGQNTKILPLLNGADIAERMRTYLPDTVVWKGCVYISARKSAPGLITLEADRELFYFGSGLPEQTDDEVRLAELLTAAGIRAYNPTDIDWYIMKKFMMISVTATATAYFDKPIGSILTEHEPELLSLLEEVAELFRAKYGQVPDDVVQQLLDKQRKMPPESTSSMHSDFLQGGSTEVETLTGYVVREAEALRVDLPMYKRMYRELVSRTAN | not failed
